From article PMC6292502 (Nature structural & molecular biology, 2018)

How the values were obtained:
Cep3;Ctf13;Skp1;Ndc10 = Cep3;Ctf13;Skp1;Ndc10 (Saccharomyces cerevisiae;Saccharomyces …, UniProt P40969;P35203;P52286;P32504 1-608;1-478;1-194;1-956, |||); test: cryo-EM
cryo-EM structure = molecular target: the molecule itself; test: cryo-EM structure

Cep3;Ctf13;Skp1;Ndc10, sequence (P40969 whole entry, chain 1 of 3): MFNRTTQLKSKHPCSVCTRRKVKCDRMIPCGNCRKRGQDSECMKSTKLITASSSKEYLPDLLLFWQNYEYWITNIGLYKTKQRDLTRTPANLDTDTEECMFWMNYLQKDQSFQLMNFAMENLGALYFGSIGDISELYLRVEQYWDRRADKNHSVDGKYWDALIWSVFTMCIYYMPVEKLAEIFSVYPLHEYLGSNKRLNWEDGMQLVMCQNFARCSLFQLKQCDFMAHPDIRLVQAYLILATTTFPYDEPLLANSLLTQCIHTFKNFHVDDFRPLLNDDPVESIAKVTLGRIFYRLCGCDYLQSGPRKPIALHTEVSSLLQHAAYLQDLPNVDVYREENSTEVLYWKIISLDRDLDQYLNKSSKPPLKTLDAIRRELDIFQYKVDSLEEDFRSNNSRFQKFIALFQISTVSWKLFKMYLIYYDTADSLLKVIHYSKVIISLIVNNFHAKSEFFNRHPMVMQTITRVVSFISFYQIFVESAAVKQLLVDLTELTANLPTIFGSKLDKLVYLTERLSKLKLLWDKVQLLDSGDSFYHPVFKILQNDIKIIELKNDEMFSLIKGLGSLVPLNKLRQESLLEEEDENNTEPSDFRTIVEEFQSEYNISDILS
Cep3;Ctf13;Skp1;Ndc10, sequence (P35203 whole entry, chain 2 of 3): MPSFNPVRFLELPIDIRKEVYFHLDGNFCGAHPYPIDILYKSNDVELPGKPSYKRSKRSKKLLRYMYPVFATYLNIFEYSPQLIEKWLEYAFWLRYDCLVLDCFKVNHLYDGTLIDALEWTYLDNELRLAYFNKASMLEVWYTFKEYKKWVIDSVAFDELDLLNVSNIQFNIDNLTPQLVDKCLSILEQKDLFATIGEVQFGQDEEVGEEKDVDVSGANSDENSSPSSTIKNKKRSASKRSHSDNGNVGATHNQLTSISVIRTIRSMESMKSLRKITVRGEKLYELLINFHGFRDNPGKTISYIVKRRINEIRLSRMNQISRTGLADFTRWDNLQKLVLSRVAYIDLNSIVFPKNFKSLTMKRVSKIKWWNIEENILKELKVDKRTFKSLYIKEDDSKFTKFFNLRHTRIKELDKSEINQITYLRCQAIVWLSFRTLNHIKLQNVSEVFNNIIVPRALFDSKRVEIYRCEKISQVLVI
Cep3;Ctf13;Skp1;Ndc10, sequence (P52286 whole entry, chain 3 of 3): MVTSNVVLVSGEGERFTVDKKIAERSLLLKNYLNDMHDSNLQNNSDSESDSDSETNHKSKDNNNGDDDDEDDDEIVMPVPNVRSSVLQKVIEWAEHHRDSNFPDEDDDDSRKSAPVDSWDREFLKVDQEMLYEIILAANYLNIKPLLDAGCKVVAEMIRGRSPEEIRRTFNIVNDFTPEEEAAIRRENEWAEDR

B1: CEN3 DNA (147 bp CEN3) (dsDNA)
DNA 1: ATCAAATAGTACAAATAAGTCACATGATGATATTTGATTTTATTATATTTTTAAAAAAAGTAAAAAATAAAAAGTAGTTTATTTTTAAAAAATAAAATTTAAAATATTAGTGTATTTGATTTCCGAAAGTTAAAAAAGAAATAGTAAGAAGAT
DNA 2: ATCTTCTTACTATTTCTTTTTTAACTTTCGGAAATCAAATACACTAATATTTTAAATTTTATTTTTTAAAAATAAACTACTTTTTATTTTTTACTTTTTTTAAAAATATAATAAAATCAAATATCATCATGTGACTTATTTGTACTATTTGAT
Cep3;Ctf13;Skp1;Ndc10
  binding result: binds

B2: Ndc10 (natural protein)
chain: MRSSILFLLKLMKIMDVQQQQEAMSSEDRFQELVDSLKPRTAHQYKTYYTKYIQWCQLNQIIPTPEDNSVNSVPYKDLPISAELIHWFLLDTLITDDKPGEKREETEDLDEEEENSFKIATLKKIIGSLNFLSKLCKVHENPNANIDTKYLESVTKLHTHWIDSQKAITTNETNNTNTQVLCPPLLKVSLNLWNPETNHLSEKFFKTCSEKLRFLVDFQLRSYLNLSFEERSKIRFGSLKLGKRDRDAIIYHKVTHSAEKKDTPGHHQLLALLPQDCPFICPQTTLAAYLYLRFYGIPSVSKGDGFPNLNADENGSLLQDIPILRGKSLTTYPREETFSNYYTTVFRYCHLPYKRREYFNKCNLVYPTWDEDTFRTFFNEENHGNWLEQPEAFAFPDKIPFDFKKIMNFKSPYTSYSTNAKKDPFPPPKDLLVQIFPEIDEYKRHDYEGLSQNSRDFLDLMEVLRERFLSNLPWIYKFFPNHDIFQDPIFGNSDFQSYFNDKTIHSKGSPILSFDILPGFNKIYKNKTNFYSLLIERPSQLTFASSHNPDTHPTQKQESEGPLQMSQLDTTQLNELLKQQSFEYVQFQTLSNFQILLSVFNKIFEKLEMKKSSRGYILHQLNLFKITLDERIKKSKIDDADKFIRDNQPIKKEENIVNEDGPNTSRRTKRPKQIRLLSIADSSDESSTEDSNVFKKDGESIEDGAYGENEDENDSEMQEQLKSMINELINSKISTFLRDQMDQFELKINALLDKILEEKVTRIIEQKLGSHTGKFSTLKRPQLYMTEEHNVGFDMEVPKKLRTSGKYAETVKDNDDHQAMSTTASPSPEQDQEAKSYTDEQEFMLDKSIDSIEGIILEWFTPNAKYANQCVHSMNKSGNKSWRANCEALYKERKSIVEFYIYLVNHESLDRYKAVDICEKLRDQNEGSFSRLAKFLRKWRHDHQNSFDGLLVYLSN
cryo-EM structure
  binding result: binds
